Experimental data as given in patent publication EP1117807B1.

Molecular target: HMW protein antigen of the anti-HMW EIA
Assay: antigen-specific EIA, control chinchilla serum IgG titer on coated antigen, second experiment

serum of control chinchillas immunized with alum alone (antibody)
Anti-HMW antibody titers Log2 (Titers/100) (Log2 (Titers/100)): < 0.05
